Measurements published in patent US20240228595A1 (YALE UNIVERSITY, published 2024).
Like-named read-outs stand apart in the source and are kept apart here.

B1: Clone 2 (antibody, V domains shown)
VH: EVQLQQSGPELVKPGASVKISCKASGYSFTGYSMNWMKQSPEKSLEWIGEINPSTGGTTDNQKFKAKATLTVDKSSSTAYMQLKSLTSEDSAVYYCARSRGDYWGQGTSVTVSS
VL: DIVLTQSPASLAVSLGQRATISCRASESVEYYGTSLMQWYQQKPGQPPKVLIYAASNVESGVPARFSGSGSGTDFSLNIHPVEEDDIAMYFCQQSRKVPWTFGGGTKLEIKR
B2: Clone 6 (antibody, V domains shown)
VH: QVQLQQSAAELARPGASVKMSCKASGYTFTSYTMHWVKQRPGQGLEWIGYINPTSGYTEYNQNFKDKTTLTADKSSSTAYMQLNSLTSEDSAVYYCAREGHRVGPAYWGQGTLVTVSA
VL: not shown
B3: Clone 13 (antibody, human IgG1, kappa, V domains shown)
VH: EVQLVESGGGLVQPGGSLRLSCAASGFTFSGYSMNWVRQAPGKGLEWVAEINPSTGGTTDNQKFKARFTISRDNSKNTLYLQMNSLRAEDTAVYYCARSRGDYWGQGTLVTVSS
VL: DIQMTQSPSSLSASVGDRVTITCRASESVEYYGTSLMQWYQQKPGKAPKLLIYAASNVESGVPSRFSGSGSGTDFTLTISSLQPEDFATYYCQQSRKVPWTFGQGTKVEIKR
B4: Clone 16 (Clone6-KiH-Clone2) bispecific antibody (bispecific antibody)
heavy 1: not shown
light 1: DIVLTQSPASLAVSLGQRATISCRASESVDNYGISFMNWFQQTPGQPPKLLIYGSSNQGSGVPARFSGSGSGTDFSLNIHPMEEDDTAMYFCQQSKEVPYTFGGGTKLEIKRTVAAPSVFIFPPSDEQLKSGTASVVCLLNNFYPREAKVQWKVDNALQSGNSQESVTEQDSKDSTYSLSSTLTLSKADYEKHKVYACEVTHQGLSSPVTKSFNRGEC
heavy 2: not shown
light 2: DIVLTQSPASLAVSLGQRATISCRASESVEYYGTSLMQWYQQKPGQPPKVLIYAASNVESGVPARFSGSGSGTDFSLNIHPVEEDDIAMYFCQQSRKVPWTFGGGTKLEIKRSSASTKGPSVFPLAPSSKSTSGGTAALGCLVKDYFPEPVTVSWNSGALTSGVHTFPAVLQSSGLYSLSSVVTVPSSSLGTQTYICNVNHKPSNTKVDKKVEPKSC

What was measured:
[1] = molecular target: T1, SARS-COV-2 RBD-his tag protein (Sino Biological) (SARS-CoV-2, UniProt P0DTC2 319-541)
[2] = molecular target: T1, SARS-COV-2 RBD-his tag protein (Sino …); remark: listed apart in the source
[3] = molecular target: T1, SARS-COV-2 RBD-his tag protein (Sino …); remark: listed apart in the source

| Binder | Kd [1] | koff [1] | kon [1] | Kd [2] | koff [2] | kon [2] | Kd [3] | koff [3] | kon [3] |
| --- | --- | --- | --- | --- | --- | --- | --- | --- | --- |
| B1 | 0.00158 nM | 1.49e-07 s⁻¹ | 94500 M⁻¹ s⁻¹ | 0.0441 nM | 7.09e-05 s⁻¹ | 1.61e+06 M⁻¹ s⁻¹ | 1.67 nM | 0.000853 s⁻¹ | 511000 M⁻¹ s⁻¹ |
| B2 | – | – | – | 0.148 nM | 0.00056 s⁻¹ | 3.77e+06 M⁻¹ s⁻¹ | 2.27 nM | 0.00611 s⁻¹ | 2.69e+06 M⁻¹ s⁻¹ |
| B3 | – | – | – | – | – | – | 4.17 nM | 0.000497 s⁻¹ | 119000 M⁻¹ s⁻¹ |
| B4 | – | – | – | – | – | – | 2.95 nM | 0.00461 s⁻¹ | 1.56e+06 M⁻¹ s⁻¹ |
